The data set in a line: label from the status in PepcDB records.
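Note: failed if final PepcDB status was selected cloned or expressed and not failed if soluble or beyond.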

As for “MATAVKLSGISKTFGSLKANDNVSLSIEAGSIHALVGENGAGKSTLSNIIYGLLHPDSGTIEIDGKAVKFSSVRQAIEAGIGMVHQHFMLVPTLSVTENIILGKEESRLALPTRRIGKEIRQLSQQHGLEVDPDALVSTLSVGEQQRVEILKLLYRRAKLLILDEPTAVLSPPETARLFATLRSLAAEGRTVLLITHKLDEVLTVSDSVSVMRKGSLVGTVPTTSTSKEDLARMMVGRDVLLRTANAPQTPGKTVLSIDKLTYRSPLGIDKLTGLTLHVRAGEIYGIAGVEGNGQSELLSLLWGTFDRSGKTGGSITIDAQETLGKNPSEIAALGVSMIPEDRHKSAIIAEYGIEENLILGRHREKAFHRGIGFDRDAVHKNATAMIEQYDIRCAAGTNPPIASLSGGNQQKIVVAREMERPQLKLLVLAQPTRGVDIGAIEQIHKRIIDARKSGLAILLISSELEEIVALSTRIGCLYKGAIRHEFSETEVWRGRDHESGFEKEIGMHITLEHHHHHH”, the protein production entry is “not failed”.

Regarding “MATESSSPSSVRKVVVHLRATGGAPILKQSKFKIPGTDKFAKVIDFLRRQLHSDSLFVYVNSAFSPNPDESVIDLYNNFGFDGKLVVNYACSMAWG”, the protein production entry is on record as “failed”.

On to “MATHNIHMDCAVNPSVRWRSRPVSTQVPRTRRFAAVVGPIAFSTLGIVLSLFAAVAVDAQPRTPGRVAAVFPPWWDDARVVASAGTAGDIAGAGGASFIVILRGDPATLNQRARTAGAWLLLDPALAGACARPASEPVSS”, for which the protein production result is recorded as “failed”.

As to “MATIAAADRTVTSVRPAELGVKVVIVMALLLIVMLIFAYKVVSLHNMKDEPFWAAYGLIITAFIFTRFGLAALYRPPRRDTGNYWPVVAIIVPAYNEPDIARTLLHCVGVDYPRELLRVVVVDDKSSDDTLRRITDFAAEHPNLTVIPHEVNGGKRRAMATGMAAADDADLFVFIDSDSQVTRDAIRVIASYFADSSVGAVCGHTDVTNISHNILTRMQAMQYYIAFRIYKSAEALFGSVTCCSGCFSAYRADAVRPVADKWLNQTFLGRPSTFGDDRSLTNYLLRDWRVLYAPDAQAYTNVPEHLKQFLRQQLRWKKSWLREAPRAMCAVRRKNPVMVVMFALSIVLPLIAPQVVMRAFVVQPHFISQLPFWYFGGVAAIAVIYGLFYRLHRPVKRWYQGIFFTMFYTIILVLQMPYAMVTIRDSKWGTR”, the protein production result was “failed”.

Turning to “MATIEKRGSSYRARVTIYQHGKRDYLTKTFKTENEAKVWGTTLELEKAKGKAIAHQNTLFKDFYYLYVHTIKVNDVRKATFNNYLKAGLVINNLFPTAKLGKLDDVQMQKILDKYGETHSKKTVVELLKKIRTALRYAYAKGYIYNDFASLLKAHGKELPKRNKALSMSDLTKLKHYLLEHTDDEFNLMVLLEISTGLRRGEILGIKPEDVHYDGQYYCVEVRRSISPTTDDTKLKTKHSRRSVTIPKDVYDLLKTIPSKASGYLFDWFSFKQSELLKKLLKKIGIPSTTFHGLRDTHASFLFSNNIPLSYVSRRLGHDSILTTEKYYLELMPEKKHSQDANALNLLASL”, the protein production result was “failed”.

In the case of “MATIRKLRGRWQAQVRRRGVPPRAKSFDTKTAAERWARDLEAEADRSGWVADTRAAEKTTLGELLSRYANEVTPAKRGAVSEKARINSIVRCPISHRTLAKLTSSDVAGYRDERLKTVAPATVVRELNTISHAIEVATREWGLWVPRNPVKLVRRPPVPRGRTRRLKEGEEQRLLDACDRGRTPLLKPLIILAIETGMRRGELLDLRWEHIDLKRGVAHLPLTKNGDSRDVPLSCRAVQTLQELRSAGVRHDRVFSMTGNSVRLAFEHLRVRAGMSDLHFHDLRHEAISRLFEKGLNIAEVSAISGHRELKMLQRYTHLRAVDLVARLG”, the protein production result was “failed”.

For the sequence “MATKGLKMVTLALLDDKGVIVKGETGLSTNGVFPITDEMLGTKTANITNLSSAPTMIYGNDGQVDADIAKGTPSVAFAFNGLPVDIKNKLLGRVNDTKGGYTQGSIPKVAVLIQTTTIGTAKPQYVAFAAGKMNETAMNLQTNTNAVVRVDDALTFTAFSVSRWGGEAVKFFDGGDSKFTEDVMMKDVFNGYAGVGV”, the protein production entry is “failed”.

Take “MATKLVIAIVQDKDANYLSDQFIDQNVRATKLSTTGGFLQSGNTTFMIGIEEERVPEVLEIIKKASHTREEFMTPSVNMDVNMEGTTAYPIKVQVGGATVLVLPVDQFERF”: the protein production result is “not failed”.

In the case of “MATLDERARPWARKSRWNGYAYEFLLFGLKQAWACLFGGLMLALLVGTKLFWPEAAPIARYDFLVVAAIAIQASLLALKLERWDEALVIFMFHVVGTIMELFKTAHGSWIYPEDSVLRIGGVPLFTGFMYACVGSYIARIWRLFDITFIRYPPFWTTHILAVLIYANFFTHHYMIDIRVGLFALSVLLFGRTWFVFTPDQTARRMPMLMGAVLVSLFIWFAENLGTFAGAWIYPNQADGWQMVPFEKMGAWYLLMLISFVLVTLVHPPVHACVARIRQGIWRAA”, the protein production entry was “failed”.

Consider “MATLGANASLYSEQHRITYYECDRTGRATLTTLIDIAVLASEDQSDALGLTTEMVQSHGVGWVVTQYAIDITRMPRQDEVVTIAVRGSAYNPYFAYREFWIRDADGQQLAYITSIWVMMSQTTRRIVKILPELVAPYQSEVVKRIPRLPRPISFEATDTTITKPYHVRFFDIDPNRHVNNAHYFDWLVDTLPATFLLQHDLVHVDVRYENEVKYGQTVTAHANILPSEVADQVTTSHLIEVDDEKCCEVTIQWRTLPEPIQ”, for which the protein production entry was “not failed”.

In the case of “MATLSFGIAAAATTVRTIPRFNSRRSKITCEWDPKGVLGPAQTGHIARLEFKRRLERDSEAREAFQKQLREEKERRQALRQSRVVPDTAAELIEYFLDTEAQEIEYEIARLRGRLNDEFFAQIRLEIGQIRFAVTKTADIEDRLIELETLQKALEEGIEAYDKMQNELMTATNSLTKLLTSTDIKTTLLDMVEKNQINRSLLALLDENIANAYKGNQKEAGDYMEKIRSSVLKYLTV”, the protein production entry is “failed”.

With “MATLTEDDVLEQLDAQDNLFSFMKTAHSILLQGIRQFLPSLFVDNDEEIVEYAVKPLLAQSGPLDDIDVALRLIYALGKMDKWLYADITHFSQYWHYLNEQDETPGFADDITWDFISNVNSITRNATLYDALKAMKFADFAVWSEARFSGMVKTALTLAVTTTLKELTP”, the protein production result is “not failed”.

For “MATPKFAEIKQYITGCIESGEWEENARVPSENQLAELFVCSRMTARRALTELTDNGVLERSQGLGTFVAGRKSQSSMLAIRNIADEIKDRGHGYSVQQLALEQVNATAPIAIALALDVGSPVFHSILVHCEQGVPLQVEERYVNPAFAPDYLVQDFSEQTPHEYLSQVAPLTEAHHTIEAIIASSELQQRLAIPATEPCLQISRRTWSRQGVVSFAKLVHPGSRFKLGGHLTFNK”, the protein production entry is given as “failed”.

On to “MATPSGIVRFPGAGCVVEFMQGNRPQIAWVMEEQGGRLRLFLPNRRETKLAAARLLPWAGPRYDGERSRDDMVALLEEHRQRRDTREADIQPLELWEMVQGEVEQASVEWFAELLGETPGVDEVAAMGRALLGCKTHFKFHPPDFEVYDAAKVEARMVEMEAARVREALVEAGQAFIKVLWDVHCRRRTMPLPSSSEMPPAEVAERLATLLRTRMADPDDHDSDSVWKQVTKGLPDDAHMPLHLAAAWGIVPVHHNFWMDRAGYAPGDEWAIDHVDEIDALMKRVEALREPLVDGTFISIDSSTTRDIDDAFDISPSPEGGWILRLVLASPVTGWDFDGPLDRAVLRRATSIYLPERSHHMMPETLGTDAYSLLAGQDRPALLVTFDIAPDGSLRSTTPATGWVRLAANLTYTECEACLTGEGDAGRAAPHADRLALADALARVRQQLRVAAGAVIIERDDPKVTLEGEGCAVKVHVAPPDETPRAQLLVSEMMILANAAIASWGAERGITLLHRTQDVGIPREYAGVWNQPHDIARVVKALAPAHLEPVAKPHAGIAVPAYSPVTSPLRRYPDLVNEAQVIHYLTHGTPRWSREEVEAMLPLLGARLDAAGQVQRFRPRYWKLFYIRQQGDKAWHEAVVTEENDAFVTISLPEVQIFVRGRRSTFGDKVYPGQHFNVRLGKVHPLNNEIQIVDAMEG”, for which the protein production result is “failed”.

On to “MATPTQTPTKAPEEPDPFYYDYNTVQTVGMTLATILFLLGILIVISKKVKCRKADSRSESPTCKSCKSELPSSAPGGGGV”, for which the protein production entry is “not failed”.
